From the NTF2 design screens of Basanta et al. (2020) come the findings set out here.

A short description of this series: protease stability score; higher = more stable; yeast display proteolysis, trypsin and chymotrypsin.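 Also: log10 excess protease needed over predicted unfolded state with 0 meaning unfolded.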
“DHDIRELFKRLVDAISTNDPQTMNNNMDKDVEARVGDQDYKGRENMAHELVKTREKIRLEMHLNSLNNEGDYVRVEVEQVLEDNGQPDRSVMDAEWRADNGRVQEYHVDEKP” came in with a protease stability score of -0.146.

In the case of “DHEIRHFAEQVVRVLNTGDEEEIEKLFDPNARITVGDKSYHGMDDYARKVKQTRDEMRFTIDVKDLKVSGDSVSMRAHVVHDHNGTPQKDTEQREFRVQGDRVKHMDVKSDG”, the protease stability score was -0.395.

Take “DHEAVKLMERLIEALNTGDPDQLRRLADKDVRWRYGDKDVHGRESVVTQLKKRLEQSRFKVTDVDIKAQGDNVTADYRVIFEHNGKPDDVTVKVEAKVHNGRIKMMKIQTDK”: the protease stability score worked out at 0.623.

“DEENAKIIENLIRANETNDPDRAVQLADENVDFRIGDRTYRGMDEYATQMAHEFKEIEMRIHLKTFDTQGEKVRLEADVKRTHNGKPESFRAVMVANASNGRVVEIDVQMDK” displayed a protease stability score of 0.974.

On to “DKEVEEVWKKMLTAQKYGDEKRYKDLADPNVKYNIGDKKIDGRDTYAEEMKKRRDEIRLRMQITDVKQQGDKLHVRFKIEAEINGKPISEDVTAVLVNHNGKVKHYSMHVPHEFFKKQQK”, for which the protease stability score came out at 0.213.

“EDRHARRVANDFVRAVRKGDETRLKEQFDEDAEVQVGDTTYTGKERVVKHAQDFANSVDHLDVTDLKVNEDHASLSARVNINGRQDTIRIELRVHNGRLKRVNYDTQ” came in with a protease stability score of -0.032.

“DEEREVKKRIKHIIRVLENGDEDRAEELADPNTTARVGDKRVHGMNNYMRELARKARRADHVEVTIKHMDLNGEKFDIRLHIVIHVDGRREKFDLRFVITRQGDKHVAVDVQVS” had a protease stability score of 1.47.

In turn, “DEKKIYDLLKKMVEAYVSGNAEEVRKLLKDDGTLDVGDQQYHGVEQVTKAAEEFQKYGVELHLTDYRFDGDRVDVKAVAHLGGNTWEFTVTVQADGGKVDRLVFHVSEEAVKYIQKG” gave a protease stability score of 1.28.

In turn, “DEDKTAEQVAETIQKIWEKGDPTKMEKLFDPNASINVGEKTVKGREKIFTEAKKLMKEADHVRVTVQHVEARGDHVIVRFTFTLHVNGKNRKHEVEINAEDKNGHLRARDIKMR” yielded a protease stability score of 0.351.

In turn, “DEEKKARQALKNLVQNLRTGDEDELRKMIDKDATVRVGDEEIHGRERIAKTLLEEVKEVDHFEQHVRSITRDGDKLVIVVTQKNNHNGENQHRTVTIWIHERNGELLIQSMEYK” showed a protease stability score of 0.504.

In turn, “DDDEIEKIARQLVKALQKGDFKHFVELMDKDVRLEYGDKEVHGREQAKQAMKELAERVDHVQLDDYKVHNGTAEIRLKLNFNGKSADVVFDMRIEDGRVKKIVIRYRSEEHRKHIDT” came in with a protease stability score of 1.24.

Sequence “DDDDNKTAQDRMRTNDFTTLARHAPEDAHAQIGDTTVTGRRKLEEIVVKFREQVDHMEIKDIRTSGEKVFIDLHATFDGHTVRLVIEVEVKNGRLQKLFFRVTDPERAKEIVEQLD” came in with a protease stability score of 0.362.

On to “DETEHAKRLAEEFVRNVETGDESRLVELADPNAKFEVGDTTVHGMEDYAHNMHKRRNEADHFDFKVKSVHVSNGNIRVDIDYRVNHNGKVEKQRMVIYMTKHGDKYRIKKIEVS”, for which the protease stability score is -0.082.

“DEEKNDDTARKFLEVFQEGNEDDIRRLADEDVTVEIGDSTYHGREQALTAVREWSKTVDHYSIESIHADNGRAHLHAKVVVNGKTVNLDLVVDVRNGKVKKVMIDPDRLRELKK” had a protease stability score of 0.921.

“EEETVKHLVQLFRTGDWDQLAKEMRDNVEVIIGDKRLHGRENAEQLARILKKHIDHQSYESMTFHNGKLVMKYEFVFNGRRVRARLVVNVHNGKIVNMQLDFTDPRDERLWKKVVE” showed a protease stability score of 1.66.

“DEEDVTRLAEEMVRAFESGNPEDWVKMLDENARVRIGDKVYHGREQVQTFANSWVSRADHARVESFSVHGDNIHIKAVMDIDGVRVQVIIVARAHNGRVQELRVEWRNEDQKKHVDK” displayed a protease stability score of 1.

“DEEDQRRVAHDAADALRTGDPDRMVQLADPNVTLDIGDKRFTGDEEFHKAMKEISRQVDHMKIDSYTVRNGRASISAVLEVNGKRKRVFFVFVIHNGRIKELHIKTE”: the protease stability score worked out at 1.59.

For the sequence “DEEDVKKILDKVLKMAVKGDKDQVKTMLKPDVEYIHIDEKRQGQQVAEQVHKEIKKVGARAEIKEKTVEGDKAKVTYQFKVNGRTVEVTAEVEAKDGRVDKWQVHISDEAKEMMTKG”, the protease stability score was -0.289.
